The supplement of paper PMC12636428

Each sequence was assayed on Saccharomyces cerevisiae (assay: transcriptional activation domain activity (GFP:mCherry ratio, weighted mean of sorted bins, harmonized to initial dataset scale) (arbitrary fluorescence ratio units); higher = stronger transcriptional activation). Conditions: beta-estradiol 1 µM; induction time 4 h.
Method in brief: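 Each value is an activation activity: the read-weighted mean of bin median fluorescence, averaged across barcodes, then mapped linearly to the initial dataset scale. The tiles, fused to an estradiol-inducible synthetic transcription factor, sat at the yeast URA3 locus in GFP-reporter diploids. Cells spent 4 hours at 30 °C in SC with 1 uM beta-estradiol before sorting into 8 GFP:mCherry bins, and tiles below 50 reads were removed.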

Compared with “EDDEELVEEVAKKGKGKGKGKAGKAAAAIGAAEGGKGRRGRKPKAKGAEEQGE”, “MFHSIYLVVPSFHPSHALIVSFLFSLLRITLHLLLHFLVLYLLLCILFFWHPE” is lower in “transcriptional activation domain activity” value: 60600 for the first, 43100 for the second.

First: HSSAPASPASPSPNSAPTPPATTPPPPPSPAAPRRTHSPPTPGTRRPSTTTPS
Second: TTTGTTTTGTTATPSSSPETKPNKIPISMQGYAYSGGGRAIARVDVSLDNGRT
The “transcriptional activation domain activity” value of the first is higher: 53500 for the first, 37700 for the second.

First: LLFTFCLYPSFLPFLLLSPLFFFLSLSPFSFFSLFSLSLPLLSPSLFSTPFIH
Second: DSKLLPGFASYLSFCLFLYAITTVLPFFSLDCPYSTPLTPLMCRLYHFFMFGI
The “transcriptional activation domain activity” value of the first is lower: 39600 for the first, 66800 for the second.

Compared with “GCRNAYEIKTLRFGGVCMLHRCGGGQNCFKECCIDLMICLRFYIPFMKKFCPK”, “QHMAQSAQSVMGLEDHNAYGDPDSASRKRSKVSRACDECRRKKVRPRRPANGV” is higher in “transcriptional activation domain activity” value: 15900 for the first, 25800 for the second.

Going from “EQDAFFPWLWIDPQFPEDPVLGSWDTFLGDFNCGMPLDDLDFALDMLQYSVGA” to “MPPFLFSEGAFMFRICFFPLCLWWCLFLFFSFFLLLQFLSYGFAFSCGRYILF”, the “transcriptional activation domain activity” value falls from 161000 to 65100.

First: SVKTKAAGKGKPKTTNDKATKSSEPRKAAKVSDDETKPTSNGAASAKAGGERQ
Second: SSKHDYKRSRRSKTKDEDDDDDDEDRKRRKRRKEREHSKKKEKEERRSVLTGK
The “transcriptional activation domain activity” value of the first is lower: 23600 for the first, 30300 for the second.

Going from “RKPEPAGEKAEGAQSGGEGQNGEGRRRGGGRGRGRARGRGGRGGRGGRGQRNA” to “MGPPFFDGFSDGSSDLGSLFLPNGDSANWDLSWSAETFWQLENEYTSLPSFFD”, the “transcriptional activation domain activity” value rises from under 6570 to 144000.

Going from “MIFMPSCCGFFISMFTTYGTLFSIRGILTYNPFFLCTFLFPFLFHGVPCLFLF” to “PFPLSFPLPFLLSFPLPFLLSFPLISSQPFPLSLLSFPPFPPLSPLPPPSPFF”, the “transcriptional activation domain activity” value falls from 49700 to 44600.

First: IRCAKGFKSTDETKIFKTGQGGMKGNMYVTLSWNRWGKLLWATRIITRDFNPV
Second: RRDSVSSSSRGQGGEKGRASSKESNNSGRQGETTSNRSQSKNRAKQTKGDKDS
The “transcriptional activation domain activity” value of the first is higher: 46000 for the first, 15900 for the second.

Compared with “VGETVVTFCYEDGIMVMAMVGSGFMGYYLYTLQVKHSFSGPGPWFLGMALICL”, “EIFSSYNASMVQESAGIDFLDFAMPDLIAEANDWAFQGVDSAFFDSVMAGYTL” is higher in “transcriptional activation domain activity” value: 68700 for the first, 147000 for the second.

Compared with “ADAAGEPAQANGESKSAKRRKQKKAAAAAKAAGATNADGTPAAAAEKPARAQR”, “FPCFFISLFPCLLSLSISLFPCLVISLSFFLISLFPFLFLFFPFLSFSLFPYF” is higher in “transcriptional activation domain activity” value: 17100 for the first, 68500 for the second.

First: FTQFEDTWNLDVTPNFLPDLNDFDMERLDFSLADDFAQSIASFPYSPPETLLI
Second: FPSLRLPFCVCLWFRLFVFFFHIGSFVLLVRLFFFFFNFGLFFLFFFLFSFFS
The “transcriptional activation domain activity” value of the first is higher: 149000 for the first, 27500 for the second.

Compared with “PINALCIILSDDSIKALLQEEFPLKQYRDICNKLDVYLSRRRILGILLYMYPT”, “MDSGGRLEVHLFFFLLLFVQMWFSWVYFLFSLVFLTLLTRDLGGLLLLVYSFC” is lower in “transcriptional activation domain activity” value: 72700 for the first, 34700 for the second.

First: FFHVTIRVASQACGIGFGILGFRNTNLFLAFLILGAEGYFSLVLCAFRFLISW
Second: TLSGVLMLFWQPNGQRLIGNATLWCWIRPGLEFYRIVLNYGWIWIILGVNICT
The “transcriptional activation domain activity” value of the first is lower: 48000 for the first, 73100 for the second.

Going from “MLTHLHFVEQPLTPPFFSVSITSFLLRSFAFPPCVLPSVAFFLCLFCFLPLLV” to “MGGGVWEPVLDVWLFSFFFSLYTSFFIGFGSLSFFPSYLVCFFFISFPPHFLL”, the “transcriptional activation domain activity” value falls from 56500 to 53400.

Compared with “KEDAGEAEAEGSGDKAEEAIAEKPKRGRKKAEPKEKAEPAAKPAVGRKKSVAE”, “TASSGTRATTTSSAPRSRRTHTTPLRAAQARAPRCRTARARTSCGSTPTARRS” is lower in “transcriptional activation domain activity” value: 45700 for the first, 23800 for the second.

First: MFTGTLWLAFFLDCCLWWYMMFLCFWYEACLHVLLLGFHVYCLLWCMILSLSL
Second: MDNKSSKSPGNIPKHRACDECRSRKLACSKEPDGCARCKRERIKCHYSPQKPM
The “transcriptional activation domain activity” value of the first is higher: 58200 for the first, 34700 for the second.

Compared with “NNETETATKARRKKQAPKAAVEGSEDYESETATKAVAKKETKKKPIQKEVLVP”, “FNIVAFGIIILDFWGMIGIWTQKFGFHHVWEVWLYQVYYGLFVCPWYSYSQIM” is higher in “transcriptional activation domain activity” value: under 6570 for the first, 80200 for the second.

Compared with “PANSSFVYVPMGWTLEVRNDGNPAIYAALLVRALLSRRVCRVGLLKHNTILVH”, “RHLPAVNGGKLTSYAIVGEGSMSPHFVWTAHHAVYVVDGWSLALLFRKVELRY” is lower in “transcriptional activation domain activity” value: 51300 for the first, 48200 for the second.

Going from “AKKADAPAPAAPAKANKRKKAEESEAESEEEPAPAVKKPKVEQPKAAPKAAKA” to “MPILMQFCFIMALNGICNSMHLYAAYNLRTHVLARVFWSILWLLLRSLCSAGW”, the “transcriptional activation domain activity” value rises from 26700 to 70700.

First: MHSVTAALRSLSLAGRRSLSTSAPRWEQAAAEAVASTSTWTPQTQRTGVLARK
Second: AQLLRLAHIHQIRHMVHIFSPVWYRPAVIYCFIAICFIVVLNIQALLSIVWSS
The “transcriptional activation domain activity” value of the first is lower: 14900 for the first, 45900 for the second.

Going from “GLCLLYISGLVCATIVCYIEFTMHQSALLNATRLTPFMIAALCLTLFLNIIAT” to “ALSTRPFVLSDMIFFFGVGTLITLPIPFLVIYDYPYKKPRTYQVYLLICVWAW”, the “transcriptional activation domain activity” value rises from 57200 to 61500.

Compared with “VAVTFHTEPHRLVSIIPALISIWDYILGLSPAELSSCTGIHWCIYILTIIFGF”, “WMIWFRVGFACIFSSCVFLRVYGLYRIFIQRKPFTRYSFYVPFTIFTVCVFIF” is higher in “transcriptional activation domain activity” value: 55400 for the first, 69400 for the second.

Compared with “PVVDLNSCFSNGFNNEKQEIEMETDDSPILLMSSSASRENSNTFSVIQRTPDG”, “VGAVMVRGQDYVPAFDVAPDWESYDYAKLDPTNDDDKEFINNMWAWDKPVSVN” is higher in “transcriptional activation domain activity” value: 52900 for the first, 57300 for the second.

Going from “LLFFSLSLFKKKYLPFILFFFFFYSSLFFFFYPFLFNFFSFFLIFFFFFSLQV” to “EYLDKLLAEFEEFDYSINRVLPDVIDFSALIGQDSSANNQIFSSEFSSDPTVN”, the “transcriptional activation domain activity” value rises from 34300 to 139000.

Going from “YIFMISLSSYSLSLINTLVSFGLLLLYTPSYRLWGWNPPFRAPKIIIFLFFLS” to “MDNIRSKHNHLLTAGWIYAFIDFWCITLRHFLIFIASMLFYGYLCIWCPTILV”, the “transcriptional activation domain activity” value rises from 48300 to 59000.

Going from “MIVLVLLFLVFCLLLLVGMVDERGMAGDMYKLYRTPASCRVLALSNPIVRGAW” to “TLIHEPDQLLFFPFFLFALFLSFPSFLLPSFFLLFLLFYFFPSYLLLCLFSFI”, the “transcriptional activation domain activity” value falls from 52800 to 51700.

First: MCIFFKGQYPIYLAFVRPFASLFFRVPLFRLFFGIFCAWVLCFLFLLLLSFSC
Second: AASPEEVIAPKSKRQPRRNTQAVSADPASLTPPADTKPKRSRAPRKAKVTIAE
The “transcriptional activation domain activity” value of the first is higher: 43600 for the first, 13300 for the second.

First: EEEEPSDEGEGEELDENGDVVMADVSQKSTKSKKEEPAQRYIGSVEVLSKLNL
Second: IISARDAGNGEEAAAQNVLNCFEYQFPNLQTIQSLVHEQTLLSQLASSATPHS
The “transcriptional activation domain activity” value of the first is lower: under 6570 for the first, 75200 for the second.

Going from “LLVLYGLTWAFNLISCMLISTNNGNYISCILGLFNCVFVYTLTKMILYLYFIE” to “FSWVELCLSVTWWFFPACLLLSDTLVLVYLTPGLDVLVPFSMIFVYCFLGLPP”, the “transcriptional activation domain activity” value falls from 57000 to 52300.

Going from “PSLYLVTFFRDSLEMIMISLKYFRYEAHKVVNILPILPDLYTIVRTLVNKCVR” to “SEESEGETGGKRKRKASSSSGRGEKGKKSKRGGGPEARTRKRKAAAETAETGE”, the “transcriptional activation domain activity” value falls from 43700 to 23500.

Compared with “LAILMDGLNRILLTHKDDIGIVARVMLAYMTAATRFKRLFISGGGYMLFMPAV”, “IRPSTPAATRSTSPPRPRPPRASRSPRPRRTRGRRSSKLRRKATSPPPATAPS” is lower in “transcriptional activation domain activity” value: 59800 for the first, 38200 for the second.

Going from “LAPFLAWLLSLLLQFFVFFLCYNYCTCFFTCLFTCLFCPFRWLQLLLYSIITT” to “SKSRSSSSSSSSSSSSSSSSSSSESEKSHSKHKSKSKSKSKARKSKSKSKHRG”, the “transcriptional activation domain activity” value falls from 44000 to 18100.

First: PILIPGGLGVVLLHLPASFTKIECNESGFHQFIKRRCRLLLGVEPGMKVVVLT
Second: VPGEVTDAEANGEVKAEDADGAEKTKPKKKKKSKAAKAKAKAEGAVEGATAAV
The “transcriptional activation domain activity” value of the first is higher: 60900 for the first, 52900 for the second.

Compared with “VSMARGKKTFDRETIVIALERLLAVAPLAFQKVKILLALASCHFDFLSSASAY”, “MADENNTAAAVGERNVPRQKQKRVFQTRARTGCQRCRARRRKCDEAKPRCARC” is lower in “transcriptional activation domain activity” value: 68200 for the first, 35200 for the second.

Going from “MGFSIDRAIELIWNLLYFFFLSSFLHIFLGLSWDMIICWNYFLSLFILLVFSS” to “MYMSTIRSGHLQPVPSSSKLILFIFLFLFSLISLFFLVGSFPPFFLSYLWILC”, the “transcriptional activation domain activity” value falls from 62600 to 31200.

First: MFKGSFFFSLTGFLFSLLFLFFYPLPCWGRDHFFCWGLECLFSLFLSWVLFTV
Second: ERSLGGGSLYTGKAVHTDPEMSEVHATEYTRGRLRKFLCLAFGEVASVLRLDK
The “transcriptional activation domain activity” value of the first is higher: 41100 for the first, 16600 for the second.

Compared with “SEAESEAEAEAEEATEPEVSQEKPKRGRKKKEVEVEIKEKPSRKPAGRPKKEK”, “ANRCSFFALEFSVGISWSTVGADFYVYYPTNTSKRLTFFMTWAGLWISLIFVN” is higher in “transcriptional activation domain activity” value: 12300 for the first, 47200 for the second.

Compared with “SLAFPLFIIARYFPLGLIAIDFIQLAAPTHSQVTCTVLFRLYILLLMIITFST”, “QEDDPMPYLSWTPTVGRNSAFVDLTEEQREELGGIEYRSLKLLLIILVCYYVG” is higher in “transcriptional activation domain activity” value: 40900 for the first, 48300 for the second.

First: HTRSLRYGKLRNGTLVRVPPTLIVRLKSHFHSLPCGVDLVLGLNGYIWVCMHI
Second: LLWSYLLPLFFSLLNELCKRFLPFPLFPLFFYIPCAFYPSPTLSVCSHPLLFI
The “transcriptional activation domain activity” value of the first is lower: 52700 for the first, 61500 for the second.

Going from “MCLLGDGRHPEFFYFLFFIPFDFLLHLLFYPRAFSRYLFIWMGCLNCFYFGLA” to “MPSFFLFFLFFFLLSQCFLVLCHVCIGLVSFSSLSFFFFFPYSTFFSPLPFFL”, the “transcriptional activation domain activity” value rises from 56200 to 61700.

For “GGAAKPAFGAAPSGGLFGSTANTTANTGGFGGGFGSGTTAASTSSPFGGGAAS”, the “transcriptional activation domain activity” value was 27700.
